Experimental data: US20220363763A1 (ABL BIO, published 2022)
Substitutions are numbered along the chain they refer to.

T1: recombinant his-tag human LAG3-ECD protein (human, UniProt P18627 23-450)
T1 construct: extracellular domain; not shown: his tag
T1 sequence (looked up): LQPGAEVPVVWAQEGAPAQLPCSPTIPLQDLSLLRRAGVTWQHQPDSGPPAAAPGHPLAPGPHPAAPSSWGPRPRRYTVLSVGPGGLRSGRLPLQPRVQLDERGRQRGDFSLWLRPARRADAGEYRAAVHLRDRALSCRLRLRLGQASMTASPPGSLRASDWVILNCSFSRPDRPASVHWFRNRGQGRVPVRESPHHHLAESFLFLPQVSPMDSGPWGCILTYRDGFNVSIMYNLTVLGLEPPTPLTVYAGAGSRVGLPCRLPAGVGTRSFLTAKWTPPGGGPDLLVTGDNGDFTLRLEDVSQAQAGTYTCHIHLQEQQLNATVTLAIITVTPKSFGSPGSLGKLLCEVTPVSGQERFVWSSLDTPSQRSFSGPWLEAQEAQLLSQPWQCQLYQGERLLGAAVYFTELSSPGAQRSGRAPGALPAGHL

T2: human LAG3 (construct not stated) (human, UniProt P18627 23-450, limits assumed)
T2 construct: also called human LAG3 protein; antigen
T2 sequence (looked up): T1 sequence (looked up)

B1: 147H 3421 (antibody, V domains shown)
VH: EVQLVQSGAEVKKPGASVKVSCKASGYTFTNYWLGWIKQAPGQGLEWIGDIYPGGDYINYNEKFKGKATLTADTSISTAYMELSRLRSDDTAVYYCARPNLPKDHWGQGTTVTVSS
VL: DIVMTQSPLSLPVTPGEPASISCRSSKSLLHSNAITYLYWYLQKPGQSPQLLIYQVSNLASGVPDRFSGSGSGTDFTLKISRVEAEDVGVYYCAQNLELPWTFGGGTKVEIK
B2: 147H 3808 (antibody, V domains shown)
VH: B1 VH with N59V
VL: B1 VL with A94G, N96Y
B3: 147H 3790 (antibody, V domains shown)
VH: B1 VH
VL: B1 VL with S61T
B4: 147H 3811 (antibody, V domains shown)
VH: B1 VH with T28L, N59V
VL: B1 VL with S61T, A94G, N96Y
B5: 147H 3663 (antibody, V domains shown)
VH: B1 VH with T30E, N59V, K103G, H105Y
VL: B1 VL with S61R
B6: 147H 3792 (antibody, V domains shown)
VH: B1 VH with N59V, K103G, H105Y
VL: B1 VL with N96Y
B7: 147H 3669 (antibody, V domains shown)
VH: B1 VH with T28L, N59V, K103G, H105Y
VL: B1 VL
B8: 147H 3793 (antibody, V domains shown)
VH: B1 VH with T28L, N59V, K103G, H105Y
VL: B1 VL with A94G
B9: 147H 3549 (antibody, V domains shown)
VH: B1 VH
VL: B1 VL with N96Y, L99E
B10: 147H 3508 (antibody, V domains shown)
VH: B1 VH
VL: B1 VL with A94G
B11: 147H 3794 (antibody, V domains shown)
VH: B1 VH with T28L, N59V, K103G, H105Y
VL: B1 VL with N96Y
B12: 147H 3550 (antibody, V domains shown)
VH: B1 VH
VL: B1 VL with N96Y
B13: 147H 3809 (antibody, V domains shown)
VH: B1 VH with T28L, N59V
VL: B1 VL with N96Y
B14: 147H 3791 (antibody, V domains shown)
VH: B1 VH with N59V, K103G, H105Y
VL: B1 VL with A94G
B15: 147H-11 (antibody, V domains shown)
VH: B1 VH with I37V, K38R, I48M, K103G, H105Y
VL: B1 VL with A34G
notes: Common light chain; human gamma 1 / kappa constant domains
B16: 147H-12 (antibody, V domains shown)
VH: B1 VH with I37V, K38R, K103G, H105Y
VL: B1 VL with A34G
notes: as for B15
B17: 147H-9 (antibody, V domains shown)
VH: B1 VH with I37V, K38R, I48M, K67R, A68V, L70M, K103G, H105Y
VL: B1 VL with A34G
notes: as for B15
B18: 147H-8 (antibody, V domains shown)
VH: B1 VH with I37V, K38R, I48M, K67R, A68V, L70M, A72R, K103G, H105Y
VL: B1 VL with A34G
notes: as for B15
B19: 147H-5 (antibody, V domains shown)
VH: B1 VH with E1Q, I37V, K38R, K103G, H105Y
VL: B1 VL with A34G
notes: as for B15
B20: 147H-4 (antibody, V domains shown)
VH: B1 VH with E1Q, I37V, K38R, I48M, K103G, H105Y
VL: B1 VL with A34G
notes: as for B15
B21: 147H-3 (antibody, V domains shown)
VH: B1 VH with E1Q, I37V, K38R, I48M, K67R, A68V, K103G, H105Y
VL: B1 VL with A34G
notes: as for B15
B22: 147H-10 (antibody, V domains shown)
VH: B1 VH with I37V, K38R, I48M, K67R, A68V, K103G, H105Y
VL: B1 VL with A34G
notes: as for B15
B23: 147H-1 (antibody, V domains shown)
VH: B1 VH with E1Q, I37V, K38R, I48M, K67R, A68V, L70M, A72R, K103G, H105Y
VL: B1 VL with A34G
B24: 147H-2 (antibody, V domains shown)
VH: B1 VH with E1Q, I37V, K38R, I48M, K67R, A68V, L70M, K103G, H105Y
VL: B1 VL with A34G
notes: as for B15
B25: NLAG3-HDB323-S20 (antibody, human IgG1, V domains shown)
VH: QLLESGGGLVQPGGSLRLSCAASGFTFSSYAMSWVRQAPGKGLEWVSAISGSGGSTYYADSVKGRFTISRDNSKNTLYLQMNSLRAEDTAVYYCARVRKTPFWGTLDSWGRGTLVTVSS
VL: VIWMTQSPSSLSASVGDRVTITCRASQGVSSYLAWYQQKPGKAPKLLIYAASSLQSGVPSRFSGSGSGTEFTLTISSLQPEDFATYYCQQTNWFPLTFGPGTRLEIKR
notes: Human IgG1 / kappa (pFUSEss-CHIg-hG1, pFUSE2ss-CLIg-hk); Short label tied by its unique suffix
B26: NLAG3-HDB169-S128 (antibody, human IgG1, V domains shown)
VH: QVQLVQSGAEVKKPGSSVKVSCKASGGTFSSYAISWVRQAPGQGLEWMGGIIPIFGTANYAQKFQGRVTITADESTSTAYMELSSLRSEDTAVYYCARDAGPVGYYGMDVWGQGTMVTVSS
VL: AIQMTQSPSSLSASVGDRVTITCRASQGISSWLAWYQQKPGKAPKLLIYAASSLQSGVPSRFSGSGSGTDFTLTISRLQPEDFATYYCQQAKSFPLTFGGGTKVEIKR
notes: Short label tied by its unique suffix
B27: Hu1210-40 (antibody, V domains shown)
VH: EVQLVESGGGLVQPGGSLRLSCAASGFTFSSYDMSWVRQAPGKSLEWVATISEGGGYIYYSDSVKGRFTISRDNAKNSLYLQMNSLRDEDTAVYICAREFGKRYALDYWGQGTTVTVSS
VL: DIQMTQSPSSLSASVGDRVTITCKASQDVTPAVAWYQQKPGKAPKLLIYSTSSRYTGVPSRFSGSGSGTDFTFTISSLQPEDIATYYCQQHYTTPLTFGQGTKLEIK
notes: Hu1210 VH.4c x Vk.1; human gamma 1 / kappa constant domains
B28: Hu1210-28 (antibody, V domains shown)
VH: B27 VH with S44G, E53D, D88A, T114L
VL: DIQMTQSPSSLSASVGDRVTITCKASQDVTPAVAWYQQKPGKAPKLLIYSTSSRYTGVPDRFTGSGSGTDFTLTISSLQPEDFATYYCQQHYTTPLTFGQGTKLEIKR
notes: Hu1210 VH.5a x Vk.2a; human gamma 1 / kappa constant domains
B29: Hu1210-42 (antibody, V domains shown)
VH: B27 VH with E53D, G54V
VL: B27 VL
notes: Hu1210 VH.4e x Vk.1; human gamma 1 / kappa constant domains

The binders below were run against T1, recombinant his-tag human LAG3-ECD … (assay: SPR Biacore T200, capture method as Example 2.7).

Point of comparison: B5, Kd 6.8 nM. Against it:
- B1 — within 1.5-fold, 8.1 nM
- B2 — 9.1-fold lower, 0.75 nM
- B3 — within 1.5-fold, 5.9 nM
- B4 — 12-fold lower, 0.59 nM
- B6 — 12-fold lower, 0.59 nM
- B7 — within 1.5-fold, 8.8 nM
- B8 — 5.2-fold lower, 1.3 nM
- B9 — 7.4-fold lower, 0.92 nM
- B10 — 4.9-fold lower, 1.4 nM
- B11 — 9.4-fold lower, 0.72 nM
- B12 — 6.9-fold lower, 0.98 nM
- B13 — 14-fold lower, 0.47 nM
- B14 — 5.7-fold lower, 1.2 nM

Point of comparison: B12, koff 0.0085 s⁻¹. Against it:
- B1 — within 1.5-fold, 0.012 s⁻¹
- B2 — 2.7-fold lower, 0.0032 s⁻¹
- B3 — 1.9-fold lower, 0.0045 s⁻¹
- B4 — 2.9-fold lower, 0.0029 s⁻¹
- B5 — 1.6-fold lower, 0.0054 s⁻¹
- B6 — 2.9-fold lower, 0.0029 s⁻¹
- B7 — within 1.5-fold, 0.0063 s⁻¹
- B8 — 3.7-fold lower, 0.0023 s⁻¹
- B9 — within 1.5-fold, 0.0068 s⁻¹
- B10 — 2-fold lower, 0.0042 s⁻¹
- B11 — 3.1-fold lower, 0.0027 s⁻¹
- B13 — 4.2-fold lower, 0.002 s⁻¹
- B14 — 3.4-fold lower, 0.0025 s⁻¹

Point of comparison: B8, kon 1.8e+06 M⁻¹ s⁻¹. Against it:
- B1 — within 1.5-fold, 1.4e+06 M⁻¹ s⁻¹
- B2 — 2.4-fold higher, 4.3e+06 M⁻¹ s⁻¹
- B3 — 2.3-fold lower, 770000 M⁻¹ s⁻¹
- B4 — 2.7-fold higher, 4.9e+06 M⁻¹ s⁻¹
- B5 — 2.3-fold lower, 790000 M⁻¹ s⁻¹
- B6 — 2.7-fold higher, 4.9e+06 M⁻¹ s⁻¹
- B7 — 2.5-fold lower, 720000 M⁻¹ s⁻¹
- B9 — 4.1-fold higher, 7.4e+06 M⁻¹ s⁻¹
- B10 — 1.6-fold higher, 2.9e+06 M⁻¹ s⁻¹
- B11 — 2.1-fold higher, 3.7e+06 M⁻¹ s⁻¹
- B12 — 4.8-fold higher, 8.7e+06 M⁻¹ s⁻¹
- B13 — 2.4-fold higher, 4.3e+06 M⁻¹ s⁻¹
- B14 — within 1.5-fold, 2.1e+06 M⁻¹ s⁻¹

Each binder was assayed against T2, human LAG3 (construct not stated) (assay: BLI Octet Red 96, affinity ranking).

Point of comparison: B23, Kd 35.4 nM. Against it:
- B15 — within 1.5-fold, 42.2 nM
- B16 — 1.6-fold higher, 55.2 nM
- B17 — 1.9-fold higher, 66.4 nM
- B18 — within 1.5-fold, 32.3 nM
- B19 — within 1.5-fold, 31.3 nM
- B20 — within 1.5-fold, 39.8 nM
- B21 — within 1.5-fold, 36.5 nM
- B22 — 2.3-fold higher, 82.3 nM
- B24 — within 1.5-fold, 31.6 nM

Point of comparison: B19, koff 0.003 s⁻¹. Against it:
- B15 — 1.5-fold higher, 0.00451 s⁻¹
- B16 — within 1.5-fold, 0.00344 s⁻¹
- B17 — within 1.5-fold, 0.00448 s⁻¹
- B18 — 1.8-fold higher, 0.00533 s⁻¹
- B20 — within 1.5-fold, 0.00343 s⁻¹
- B21 — within 1.5-fold, 0.00338 s⁻¹
- B22 — within 1.5-fold, 0.00404 s⁻¹
- B23 — within 1.5-fold, 0.00386 s⁻¹
- B24 — within 1.5-fold, 0.00314 s⁻¹

Point of comparison: B17, kon 67400 M⁻¹ s⁻¹. Against it:
- B15 — 1.6-fold higher, 107000 M⁻¹ s⁻¹
- B16 — within 1.5-fold, 62300 M⁻¹ s⁻¹
- B18 — 2.4-fold higher, 165000 M⁻¹ s⁻¹
- B19 — within 1.5-fold, 95800 M⁻¹ s⁻¹
- B20 — within 1.5-fold, 86200 M⁻¹ s⁻¹
- B21 — within 1.5-fold, 92500 M⁻¹ s⁻¹
- B22 — within 1.5-fold, 49100 M⁻¹ s⁻¹
- B23 — 1.6-fold higher, 109000 M⁻¹ s⁻¹
- B24 — within 1.5-fold, 99300 M⁻¹ s⁻¹

The binders below were run against T1, recombinant his-tag human LAG3-ECD … (assay: SPR Biacore T200, antibody captured by anti-human Fc, LAG3-ECD-his injected).
Procedure: The binding of the S20, S24, S27, S31, S87, S119, S120, S128, S136, S161 and T99 antibodies to recombinant his-tag human LAG3-ECD protein was examined by Biacore T200 using a capture method. Anti-LAG3 antibodies were captured using anti-human Fc antibody. The anti-human Fc antibody was coated on chip. Serial concentrations of his-tag human LAG3-ECD protein (0-4 nM) were injected over capture antibodies at the flow rate of 30 μl/min. The dissociation phase was 900 s or 550 s. The Biacore results for the anti-LAG3 antibodies have shown that these anti-LAG3 antibodies are high affinity binder to human LAG3.

Point of comparison: B26, Kd 0.815 nM. Against it:
- B25 — 18-fold lower, 0.0443 nM

Point of comparison: B25, koff 7.33e-06 s⁻¹. Against it:
- B26 — 110-fold higher, 0.000817 s⁻¹

Point of comparison: B25, kon 165000 M⁻¹ s⁻¹. Against it:
- B26 — 6.1-fold higher, 1e+06 M⁻¹ s⁻¹

Each binder was assayed against T3, human PD-L1-his taq protein (human, UniProt Q9NZQ7 19-239, limits assumed) (assay: SPR Biacore T200, antibody captured, PD-L1-his injected).
T3 construct: also called recombinant PD-L1 protein; recombinant human PD-L1; not shown: his tag
Procedure: The binding of the humanized antibodies to recombinant PD-L1 protein (human PD-L1-his taq) was tested by BIACORE™ using a capture method. The HL1210-3 mouse mAb were captured using anti-mouse Fc antibody coated on a CM5 chip. A series dilution of human PD-L1-his taq protein was injected over captured antibody for 3 mins at a flow rate of […]. The antigen was allowed to dissociate for 900 s. All the experiments were carried out on a Biacore T200.

T3 sequence (Q9NZQ7 19-239 limits assumed): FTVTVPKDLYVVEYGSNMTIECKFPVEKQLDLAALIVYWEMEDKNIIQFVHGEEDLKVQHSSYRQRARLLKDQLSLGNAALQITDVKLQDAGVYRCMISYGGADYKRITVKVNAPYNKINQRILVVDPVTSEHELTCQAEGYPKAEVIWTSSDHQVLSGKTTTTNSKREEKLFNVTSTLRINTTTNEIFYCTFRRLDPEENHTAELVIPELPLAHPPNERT

Point of comparison: B28, Kd 0.838 nM. Against it:
- B27 — 1.8-fold higher, 1.49 nM
- B29 — within 1.5-fold, 0.867 nM

Point of comparison: B29, koff 7.53e-05 s⁻¹. Against it:
- B27 — 1.7-fold higher, 0.000131 s⁻¹
- B28 — within 1.5-fold, 0.000108 s⁻¹

Point of comparison: B28, kon 129000 M⁻¹ s⁻¹. Against it:
- B27 — within 1.5-fold, 87700 M⁻¹ s⁻¹
- B29 — within 1.5-fold, 86800 M⁻¹ s⁻¹
